Data: WO2009147196A1 (dated 2009)

Biological target: Rev of the HIV-1 NL4.3 molecular clone (HIV-1)
Assay: cell-based or functional assay

B1: Nb_190 expressed intracellularly (pcDNA3.1-Nb_190; HIV-1 NL4.3-Nb_190) (VHH)
VHH: QVQLQESGGGLVQAGGSLRLSCAASGSIFSINTMGWYRQAPGKQRELVAFATSGGSTNYPDSVKGRFTISRDNVKNTVYLQMNSLKPEDTAVYYCNIDGFLGSLYKDYWSQGTQVTVSS
  virus production (p24) from the HIV-1 NL4.3-Nb_190 clone in HEK 293T cells: 300 fold reduction
